The target of experiment [1] is T1, full-length Flag-CHD4 (chromodomain helicase DNA-binding protein 4) (UniProt Q14839 1-1912).
T1 construct: FLAG-tagged, made in recombinant baculovirus infected Sf9 cells and purified on Flag-agarose; also called purified CHD4; full-length CHD4
The experiment in a line: peptide pull-down: 100 nM purified Flag-CHD4 with 1 µg N-biotinylated peptide, anti-Flag immunoblot.

The target in experiment [2] is T1, full-length Flag-CHD4 (chromodomain …). The experiment in a line: BLI, biotinylated peptide on streptavidin tips, full-length Flag-CHD4 at 0-50 nM in solution. In general terms: Biolayer interferometry detects binding as a change in optical thickness at a sensor tip.
In experiment [3] the target is T2, CHD4 (endogenous, in PEL cells BC3 / BCBL-1) (UniProt Q14839 1-1912).
T2 construct: Cellular protein in treated cells and their lysates
T2 sequence (Q14839 whole entry): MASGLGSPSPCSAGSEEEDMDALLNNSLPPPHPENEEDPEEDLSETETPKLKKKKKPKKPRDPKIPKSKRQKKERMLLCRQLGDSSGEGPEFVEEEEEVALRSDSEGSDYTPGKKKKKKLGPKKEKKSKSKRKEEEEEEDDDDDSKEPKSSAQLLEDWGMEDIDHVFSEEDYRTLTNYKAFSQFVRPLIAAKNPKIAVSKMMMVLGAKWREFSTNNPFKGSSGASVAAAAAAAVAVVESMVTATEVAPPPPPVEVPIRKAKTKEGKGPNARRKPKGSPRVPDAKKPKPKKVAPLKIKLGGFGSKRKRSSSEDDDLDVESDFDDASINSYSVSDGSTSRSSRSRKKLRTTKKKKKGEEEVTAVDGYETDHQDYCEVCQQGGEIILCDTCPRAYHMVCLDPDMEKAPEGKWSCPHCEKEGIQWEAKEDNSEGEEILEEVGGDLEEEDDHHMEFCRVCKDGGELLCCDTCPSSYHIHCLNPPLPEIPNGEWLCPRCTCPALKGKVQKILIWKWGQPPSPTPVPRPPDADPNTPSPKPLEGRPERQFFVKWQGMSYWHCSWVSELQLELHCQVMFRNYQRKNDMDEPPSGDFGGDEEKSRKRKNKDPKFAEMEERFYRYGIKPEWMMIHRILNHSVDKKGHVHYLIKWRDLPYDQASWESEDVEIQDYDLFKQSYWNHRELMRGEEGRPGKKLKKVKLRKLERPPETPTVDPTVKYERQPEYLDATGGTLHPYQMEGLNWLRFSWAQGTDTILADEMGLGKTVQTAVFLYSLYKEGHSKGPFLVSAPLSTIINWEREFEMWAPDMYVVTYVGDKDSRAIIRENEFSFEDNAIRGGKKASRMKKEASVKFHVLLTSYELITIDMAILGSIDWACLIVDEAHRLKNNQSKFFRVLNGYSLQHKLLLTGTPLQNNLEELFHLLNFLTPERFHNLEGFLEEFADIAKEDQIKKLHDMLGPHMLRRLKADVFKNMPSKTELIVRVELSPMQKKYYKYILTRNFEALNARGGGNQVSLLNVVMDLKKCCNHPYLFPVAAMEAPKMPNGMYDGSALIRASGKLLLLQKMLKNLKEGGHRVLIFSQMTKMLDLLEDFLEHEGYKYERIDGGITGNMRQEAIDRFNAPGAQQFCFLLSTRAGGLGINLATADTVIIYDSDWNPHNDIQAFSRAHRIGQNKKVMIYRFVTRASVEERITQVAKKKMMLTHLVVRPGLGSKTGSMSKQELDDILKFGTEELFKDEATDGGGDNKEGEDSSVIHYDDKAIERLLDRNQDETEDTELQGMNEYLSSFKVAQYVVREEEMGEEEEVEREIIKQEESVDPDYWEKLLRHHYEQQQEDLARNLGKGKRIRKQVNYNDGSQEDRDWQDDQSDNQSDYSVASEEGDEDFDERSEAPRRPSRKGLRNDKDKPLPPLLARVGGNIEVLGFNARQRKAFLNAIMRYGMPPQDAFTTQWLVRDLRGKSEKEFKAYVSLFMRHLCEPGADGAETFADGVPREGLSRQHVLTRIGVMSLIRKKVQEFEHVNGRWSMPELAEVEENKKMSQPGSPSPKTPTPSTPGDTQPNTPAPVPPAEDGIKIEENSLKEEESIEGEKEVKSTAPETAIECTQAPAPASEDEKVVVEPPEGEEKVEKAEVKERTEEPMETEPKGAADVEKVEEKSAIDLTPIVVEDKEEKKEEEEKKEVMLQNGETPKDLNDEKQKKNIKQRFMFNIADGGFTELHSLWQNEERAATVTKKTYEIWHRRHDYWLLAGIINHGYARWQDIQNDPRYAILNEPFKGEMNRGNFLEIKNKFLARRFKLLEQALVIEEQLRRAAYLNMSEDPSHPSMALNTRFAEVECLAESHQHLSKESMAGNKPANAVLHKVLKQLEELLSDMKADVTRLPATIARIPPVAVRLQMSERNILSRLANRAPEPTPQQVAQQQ
In words: streptavidin pull-down from BC3 cells incubated with 10 µM biotinylated peptide, anti-CHD4 immunoblot. A general note: A western blot detects proteins with antibodies after separation by electrophoresis.

The target of experiment [4] is T1, full-length Flag-CHD4 (chromodomain …). The experiment in a line: ELISA, plate coated with 1 µM biotinylated VGN73, Flag-CHD4 protein titrated, OD 450 nm.
Experiment [5] concerns the target T3, 685-1245.
T3 construct: Member of the group m7; The map draws it with the ATPase and C-terminal helicase boxes only, without PHD; also called Flag-CHD4 deletion protein 685-1245
The experiment in a line: ELISA, plate coated with 1 µM biotinylated VGN73, Flag-CHD4 deletion protein titrated, OD 450 nm. Background: An ELISA detects its analyte on a solid surface through an enzyme-linked reagent.

Experiment [6] concerns the target T4, 1250-1912.
T4 construct: Member of the group m7; The map draws it with the two DUF domains and CHDCT2, without PHD; also called Flag-CHD4 deletion protein 1250-1912
The experiment is described as above.

Experiment [7] deals with T5, 1531-1912.
T5 construct: Member of the group m7; The map draws it with CHDCT2 only, without PHD; also called Flag-CHD4 deletion protein 1531-1912
Described as above.

Non-standard residues stand in square brackets, D forms with d. No end group written: not given here. *: point of attachment. Biotin = O=C1N[C@H]2[C@H](CS[C@H]2CCCCC(=O)*)N1; Orn = NCCC[C@H](N)C(=O)O; βAla = NCCC(=O)O

T1 sequence (Q14839 whole entry): as above

B1: #4 (peptide)
peptide: Biotin-EDEMEVDYPVVSTHEQIASSPPG
notes: also called N-Biotin LANA peptide 4; KSHV LANA 906-928
With B1, the binding result in experiment [1] is given as “no binding (tested: 1 µg peptide with 100 nM CHD4)”.

B2: modified TAT peptide (peptide)
peptide: RKKRRXRRRA
modifications: d-Arg at position 1; ornithine (ORN) at position 6; beta-alanine at position 10; N-terminal biotin in BLI
notes: also called TAT alone; biotinylated TAT peptide
Consider B2, for which the binding result in experiment [2] is reported as “no binding (tested: 50 nM)”; in experiment [3], “no binding (tested: 10 µM)”.

B3: #1 (peptide)
peptide: Biotin-EQELEEVEEQEEQELEEVEEQEQ
notes: also called N-Biotin LANA peptide 1; KSHV LANA 872-894 as printed
For B3, in experiment [1], the binding result was “no binding (tested: 1 µg peptide with 100 nM CHD4)”.
For [dR]KKRR[Orn]RRR[βAla]AKHAVISAGNDPYGLKK (also: N-terminal biotin only in BLI form) [VGN73 mutant peptide (TAT-VGN73 mutant fusion peptide)], the results for the binding result in experiment [2] and in experiment [3] were “no binding (tested: 50 nM)” and “no binding (tested: 10 µM)”, respectively.

B4: #2 (peptide)
peptide: Biotin-EEVEEQEQQGVEQQEQETVEE
notes: also called N-Biotin LANA peptide 2; KSHV LANA 876-896 as printed
As to B4, the binding result in experiment [1] is on record as “no binding (tested: 1 µg peptide with 100 nM CHD4)”.

B5: VGN73 (TAT-VGN73 fusion peptide) (peptide)
peptide: [dR]KKRR[Orn]RRR[βAla]WKHAVIFWGNDPYGLKK
modifications: also: N-terminal biotin only in ELISA, BLI and pull-down forms
notes: Used without biotin in cell treatment assays; also called LANA peptide; cell-penetrating LANA peptide
B5: the “EC50 (read off the curve)” value in experiment [4] is approximately 10 nM. The binding result in experiment [5], in experiment [6] and in experiment [7] was “no binding (tested: 100 nM)” throughout.

B6: #8 (peptide)
peptide: Biotin-QPPVPYRQIDDCPAKARPQHIFYR
notes: also called N-Biotin LANA peptide 8; KSHV LANA 977-1000
Regarding B6, the binding result in experiment [1] is given as “no binding (tested: 1 µg peptide with 100 nM CHD4)”.

B7: #3 (peptide)
peptide: Biotin-ETVEEPIILHGSSSEDEMEVDYP
notes: also called N-Biotin LANA peptide 3; KSHV LANA 892-914
Turning to B7, the binding result in experiment [1] is given as “no binding (tested: 1 µg peptide with 100 nM CHD4)”.

B8: #5 (peptide)
peptide: Biotin-IASSPPGDNTPDDDPQPGPSREYR
notes: also called N-Biotin LANA peptide 5; KSHV LANA 922-945
Turning to B8, the binding result in experiment [1] is “no binding (tested: 1 µg peptide with 100 nM CHD4)”.

In general, EC50 (read off the curve) refers to the midpoint of the concentration-response curve. Low values mean greater potency, high ones weaker potency.

Values taken from US20250282834A1 (University of California, published 2025).
